Target: the molecule itself
Assay: cross-linking

B1: p7 viroporin from hepatitis C virus strain H77 genotype 1a, in proteoliposomes (natural protein, hepatitis C virus genotype 1a strain H77, UniProt P27958 747-809, looked up)
chain: ALENLVILNAASLAGTHGLVSFLVFFCFAWYLKGRWVPGAVYALYGMWPLLLLLLALPQRAYA
stoichiometry N: 6

Source: PMC5113752 (Protein expression and purification, 2015)
